Experimental data published in US8993717B2, “Gadd45beta targeting agents” (Imperial Innovations Limited, priority 2009, dated 2015).
Square brackets hold non-standard residues; d marks the D form. Primed or numbered codes have the meaning given here. Peptide text beside a SMILES is read from it. * marks the point of attachment. Benzoyl(3-OH,4-OMe) = COc1ccc(C(=O)*)cc1O; Fmoc = O=C(OCC1c2ccccc2-c2ccccc21)*; Myristoyl = CCCCCCCCCCCCCC(=O)*; ClZ = O=C(OCc1ccccc1Cl)*; OMe′ = Asp methyl ester; Cbz = O=C(OCc1ccccc1)*; βAla = NCCC(=O)O

Molecular target: T1, Gadd45β/MKK7 interaction (Homo sapiens, UniProt O14733)
T1 construct: The GST-fused full-length kinase was coated for 16 h at 4° C., at a concentration of 42 nM; made in house
T1 sequence (O14733 1-419): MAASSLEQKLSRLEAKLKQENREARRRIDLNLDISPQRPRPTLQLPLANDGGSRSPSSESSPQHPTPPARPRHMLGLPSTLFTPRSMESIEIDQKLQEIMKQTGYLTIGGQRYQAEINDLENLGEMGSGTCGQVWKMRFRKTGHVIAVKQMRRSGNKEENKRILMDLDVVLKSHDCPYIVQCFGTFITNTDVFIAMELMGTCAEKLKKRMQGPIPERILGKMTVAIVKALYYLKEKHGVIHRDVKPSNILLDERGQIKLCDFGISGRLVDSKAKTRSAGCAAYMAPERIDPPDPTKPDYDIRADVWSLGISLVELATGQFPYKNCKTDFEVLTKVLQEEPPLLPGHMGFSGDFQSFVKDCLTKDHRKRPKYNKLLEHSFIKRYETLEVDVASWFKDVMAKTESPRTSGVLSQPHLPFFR
Assay: ELISA competition assay of biotin-hGadd45β binding to coated GST-MKK7
Conditions: Table I, initial Elisa screening; coated MKK7 42 nM, biotin-hGadd45β 21 nM; competitor 21 nM, sub-libraries 42 nM
Experimental: To evaluate the inhibitory properties of peptides, ELISA-based assays were performed. In these assays, a fusion protein of glutathione S-transferase (GST) and mitogen-activated protein kinase kinase 7 (MKK7) was coated onto wells of a 96-well plate, while biotinylated-hGadd45β was used in solution. hGadd45β was biotinylated using an EZ Link NHS-LC-biotin kit (Pierce, Rockford, Ill.), according to Tornatore et al. (Tornatore L., et al. (2008). J Mol Biol; 378:97-111).
Firstly, the association between Gadd45β and MKK7 was investigated by ELISA assays as also reported in Tornatore et al. (Tornatore L., et al. (2008). J Mol Biol; 378:97-111). The GST-fused full-length kinase was coated for 16 h at 4° C., at a concentration of 42 nM in buffer A (25 mM Tris pH 7.5, 150 mM NaCl, 1 mM DTT and 1 mM EDTA) into wells of a 96-well microliter plate. Some wells were filled with buffer alone and were used as blanks. After incubation for 16 h at 4° C., the solutions were removed and the wells were filled with 350 μL of a 1% (w/v) solution of NFDM (Non Fat Dry Milk) in PBS (phosphate buffered saline). The plate was incubated for 1 h at 37° C. in the dark. After washing with buffer T-PBS (PBS with 0.004% (v/v) Tween detergent), the wells were filled with 100 μL of biotinylated-hGadd45β at concentrations ranging from 8.4 nM to 168 nM. Each data point was performed in triplicate. Following incubation for 1 hr in the dark at 37° C. the solutions were removed and the wells were again washed with T-PBS. Then 100 μL of a 1:10,000 dilution of horseradish peroxidase-conjugated streptavidin dissolved in buffer was added to each well and the plate incubated for 1 hr at 37° C. in the dark. After removal of the enzyme solution and washing, 100 μL of the chromogenic substrate o-phenylendiamine (0.4 mg/mL in 50 mM sodium phosphate-citrate buffer, containing 0.4 mg/mL of urea in hydrogen peroxide) was added and the colour was allowed to develop in the dark for 5 min. The reaction was stopped by adding 50 μL of 2.5 M H2SO4. The absorbance at 490 nm was measured in all wells and the values were averaged after subtracting the corresponding blanks. Bound protein was then detected as described above. The molar concentration of biotinylated-hGadd45β at which the half-maximal ELISA signal is detected corresponds to the dissociation constant (KD) (Friguet B, Chaffotte A F, Djavadi-Ohaniance L, Goldberg M E. J Immunol Methods. 1985 Mar. 18; 77 (2):305-19). Binding competition assays were performed by coating GST-MKK7 at 42 nM as described, a concentration of biotinylated-hGadd45β of 21 nM (pre-saturation conditions 1:0.5 mol/mol ratio) and, in a first test, using competitors at 21 nM. The binding of biotinylated hGadd45β to GST-MKK7 was analyzed in the presence of increasing amounts of competitor peptide (concentrations ranging from 0.01 nM to 100 nM), and the values obtained with the competitor were expressed as the percentage of the binding detected in the absence of competitor. […] According to the convention adopted in the table “L-Xaa” and “D-Xaa” refer to the L and D forms of amino acid Xaa.
A simplified combinatorial peptide library (Marasco et al. 2008, Curr. Protein Pept. Sci. 9:447-67) was screened for antagonists of the Gadd45β/MKK7 interaction. This library contained a total of 12^4=20,736 different tetrapeptides formed by combinations of the following amino acid residues Gln (Q), Ser (S), Arg (R), Ala (A), Tyr (Y), Pro (P), Met (M), Cys (C), Phe (F), Leu (L), His (H), Asp (D), and was iteratively deconvoluted in four steps by ELISA competition assays using at each step coated MKK7 (42 nM), soluble-biotin-hGadd45β (21 nM) and each of the 12 sub-libraries (42 nM).

Row | Compound | % Inhibition of Gadd45β-MKK7 binding [%]
1 | Fmoc(βAla)2-YDHS-NH2 ({Fmoc-βAla-βAla}-YDHS-NH2; SMILES NC(=O)[C@H](CO)NC(=O)[C@H](Cc1c[nH]cn1)NC(=O)[C@H](CC(=O)O)NC(=O)[C@H](Cc1ccc(O)cc1)NC(=O)CCNC(=O)CCNC(=O)OCC1c2ccccc2-c2ccccc21) | 0
2 | Fmoc(βAla)2-YDHP-NH2 ({Fmoc-βAla-βAla}-YDHP-NH2; SMILES NC(=O)[C@@H]1CCCN1C(=O)[C@H](Cc1c[nH]cn1)NC(=O)[C@H](CC(=O)O)NC(=O)[C@H](Cc1ccc(O)cc1)NC(=O)CCNC(=O)CCNC(=O)OCC1c2ccccc2-c2ccccc21) | 16
3 | Fmoc(βAla)2-YDHL-NH2 ({Fmoc-βAla-βAla}-YDHL-NH2; SMILES CC(C)C[C@H](NC(=O)[C@H](Cc1c[nH]cn1)NC(=O)[C@H](CC(=O)O)NC(=O)[C@H](Cc1ccc(O)cc1)NC(=O)CCNC(=O)CCNC(=O)OCC1c2ccccc2-c2ccccc21)C(N)=O) | 33
4 | Fmoc(βAla)2-YDHR-NH2 ({Fmoc-βAla-βAla}-YDHR-NH2; SMILES N=C(N)NCCC[C@H](NC(=O)[C@H](Cc1c[nH]cn1)NC(=O)[C@H](CC(=O)O)NC(=O)[C@H](Cc1ccc(O)cc1)NC(=O)CCNC(=O)CCNC(=O)OCC1c2ccccc2-c2ccccc21)C(N)=O) | 2
5 | Fmoc(βAla)2-YDHM-NH2 ({Fmoc-βAla-βAla}-YDHM-NH2; SMILES CSCC[C@H](NC(=O)[C@H](Cc1c[nH]cn1)NC(=O)[C@H](CC(=O)O)NC(=O)[C@H](Cc1ccc(O)cc1)NC(=O)CCNC(=O)CCNC(=O)OCC1c2ccccc2-c2ccccc21)C(N)=O) | 14
6 | Fmoc(βAla)2-YDHA-NH2 ({Fmoc-βAla-βAla}-YDHA-NH2; SMILES C[C@H](NC(=O)[C@H](Cc1c[nH]cn1)NC(=O)[C@H](CC(=O)O)NC(=O)[C@H](Cc1ccc(O)cc1)NC(=O)CCNC(=O)CCNC(=O)OCC1c2ccccc2-c2ccccc21)C(N)=O) | 15
7 | Fmoc(βAla)2-YDHF-NH2 ({Fmoc-βAla-βAla}-YDHF-NH2) | 99

Same assay, conditions: Table II, modified pure peptides

Row | Compound | % Inhibition of Gadd45β-MKK7 binding [%]
8 | Ac-WERW-NH2 | 69
9 | Ac-YDHW-NH2 | 58
10 | Ac-YEHW-NH2 | 64
11 | Ac-WEKF-NH2 | 65
12 | Ac-YDHQ-NH2 | 99
13 | Ac-YDRF-NH2 | 45
14 | Ac-YDKF-NH2 | 35
15 | Ac-WEHF-NH2 | 36
16 | Ac-WERF-NH2 | 29
17 | Ac-YEKW-NH2 | 27
18 | Ac-WDHW-NH2 | 50
19 | Ac-WDKW-NH2 | 69
20 | Ac-YDKW-NH2 | 23
21 | Ac-WDRF-NH2 | 46
22 | Ac-YEHF-NH2 | 52
23 | Ac-WEKW-NH2 | 65
24 | Ac-WDKF-NH2 | 26
25 | Ac-WDRW-NH2 | 93

Same assay, conditions: Table III, modified peptides

Row | Compound | % Inhibition of Gadd45β-MKK7 binding [%]
26 | Ac-PERF-NH2 | 24
27 | Ac-YEPF-NH2 | 13
28 | Ac-YDHQLys(Z)-NH2 (Ac-YDHQK(Cbz)-NH2; SMILES CC(=O)N[C@@H](Cc1ccc(O)cc1)C(=O)N[C@@H](CC(=O)O)C(=O)N[C@@H](Cc1c[nH]cn1)C(=O)N[C@@H](CCC(N)=O)C(=O)N[C@@H](CCCCNC(=O)OCc1ccccc1)C(N)=O) | 2
29 | Fmoc-YERF-NH2 | 60
30 | Benzoic acid-YDHF-NH2 | 0
31 | 3-OH—4MeO-Benzoid acid-YDHQ-NH2 ({Benzoyl(3-OH,4-OMe)}-YDHQ-NH2) | 7
32 | Myr-YDHF-NH2 (Myristoyl-YDHF-NH2) | 26
33 | Z-YD(OMe)HQ-NH2 (Cbz-YD(OMe′)HQ-NH2) | 3
34 | Ac-YDHFLys(Z)-NH2 (Ac-YDHFK(Cbz)-NH2; SMILES CC(=O)N[C@@H](Cc1ccc(O)cc1)C(=O)N[C@@H](CC(=O)O)C(=O)N[C@@H](Cc1c[nH]cn1)C(=O)N[C@@H](Cc1ccccc1)C(=O)N[C@@H](CCCCNC(=O)OCc1ccccc1)C(N)=O) | 8
35 | Ac-YERA-NH2 | 28
36 | Ac-YDRF-NH2 | 19
37 | 3-OH—4MeO-Benzoid acid-YERF-NH2 ({Benzoyl(3-OH,4-OMe)}-YERF-NH2) | 86
38 | Ac-YERP-NH2 | 0
39 | Ac-YARF-NH2 | 17
40 | Fmoc-YDHF-NH2 | 58
41 | 2CI-Z-YDHF-NH2 (ClZ-YDHF-NH2) | 38
42 | Ac-YPRF-NH2 | 13
43 | Ac-YEHF-NH2 | 23
44 | Myr-YDHQ-NH2 (Myristoyl-YDHQ-NH2) | 28

Same assay, conditions: Table V, FIG. 3C; read-out: IC50 ELISA

Row | Compound | IC50 [nM]
45 | N=C(N)NCCC[C@@H](NC(=O)[C@@H](CCC(=O)O)NC(=O)[C@@H](Cc1ccc(O)cc1)NC(=O)[C@@H](Cc1ccc(O)cc1)NC(=O)OCc1ccccc1)C(=O)N[C@H](Cc1ccccc1)C(N)=O [Compound 22, Z-Tyr-Tyr-Glu-Arg-Phe-NH2] (Cbz-[dY][dY][dE][dR][dF]-NH2) | > 5
46 | NC(=O)CC[C@@H](NC(=O)[C@@H](Cc1c[nH]cn1)NC(=O)[C@@H](CC(=O)O)NC(=O)[C@@H](Cc1ccc(O)cc1)NC(=O)OCc1ccccc1)C(N)=O [Compound 32, Z-Tyr-Asp-His-Gln-NH2] (Cbz-[dY][dD][dH][dQ]-NH2) | > 10
47 | NC(=O)CC[C@@H](NC(=O)[C@@H](Cc1c[nH]cn1)NC(=O)[C@@H](CC(=O)O)NC(=O)[C@@H](Cc1ccc(O)cc1)NC(=O)[C@@H](Cc1ccc(O)cc1)NC(=O)OCc1ccccc1)C(N)=O [Compound 33, Z-Tyr-Tyr-Asp-His Gln-NH2] (Cbz-[dY][dY][dD][dH][dQ]-NH2) | > 10

Same assay, conditions: Table VI; compounds 0.01-100 nM; read-out: IC50 Elisa

Row | Compound | IC50 [nM]
48 | CC(=O)NC(Cc1ccccc1)C(=O)NC(CCCNC(=N)N)C(=O)NC(Cc1ccc(O)cc1)C(N)=O (stereo not drawn) [Compound O1, Ac-FRY-NH2] (Ac-Phe-Arg-Tyr-NH2; configuration not given here) | > 100
49 | CC(=O)NC(Cc1ccc(O)cc1)C(=O)NC(Cc1ccccc1)C(N)=O (stereo not drawn) [Compound A1, Ac-YF-NH2] (Ac-Tyr-Phe-NH2; configuration not given here) | > 100

Same assay, conditions: read-out: IC50s in vitro

Row | Compound | IC50 [nM]
50 | N=C(N)NCCC[C@@H](NC(=O)[C@@H](Cc1ccc(O)cc1)NC(=O)OCc1ccccc1)C(=O)N[C@H](Cc1ccccc1)C(N)=O [Compound 19, Z-Tyr-Arg-Phe-NH2] (Cbz-[dY]-[dR]-[dF]-NH2) | 0.1
